Article PMC4072592, “The EJC Binding and Dissociating Activity of PYM Is Regulated in Drosophila” (PLoS Genetics, 2014)

Target: T1, FL-PYM-GFP (S2 cells) (Drosophila, UniProt P82804 1-207)
T1 construct: Drosophila PYM (wibg, CG30176), full length coding region amplified from ovarian cDNA; also called GFP-tagged FL-PYM; source: S2 cells, transiently transfected, in cytoplasmic extract; not shown: eGFP, C-terminal, kept
T1 sequence (looked up): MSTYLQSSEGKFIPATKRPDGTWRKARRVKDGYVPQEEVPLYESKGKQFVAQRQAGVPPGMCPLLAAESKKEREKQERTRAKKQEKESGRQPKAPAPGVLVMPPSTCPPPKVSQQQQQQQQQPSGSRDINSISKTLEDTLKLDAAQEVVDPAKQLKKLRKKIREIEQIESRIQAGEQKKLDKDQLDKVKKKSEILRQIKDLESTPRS
Assay: co-IP + cross-linking; as the native GFP-Trap IP from S2 cell extracts, but extracts cross-linked with 1 mM DSP for 1 h at 4°C before the IP; blots quantified by densitometry
Details: partners not purified

B1: Y14-Mago heterodimer, endogenous in S2 cells (complex)
chain 1: not shown
chain 2: not shown
notes: Y14 (Tsunagi), Drosophila, endogenous; Mago nashi (Mago), Drosophila, endogenous; also called Mago and Y14; Mago-Y14; source: endogenous, cytoplasmic extract of Drosophila S2 cells
Q: With B1 as the binder, how does the “fold increase of binding upon DSP treatment against native” value read?
A: 1.7 fold
